B1: RANTES derivative: signature sequence SEQ ID NO: 4 fused to positions 10-68 of native RANTES (SEQ ID NO: 1) (ligand)
chain: QGPPLMWLQVCCFAYIARPLPRAHIKEYFYTSGKCSNPAVVFVTRKNRQVCANPEKKWVREYINSLEMS
B2: RANTES derivative: signature sequence SEQ ID NO: 47 fused to positions 10-68 of native RANTES (SEQ ID NO: 1) (ligand)
chain: B1 chain with P4L, L5S, M6Q, W7S, L8S
B3: RANTES derivative: signature sequence SEQ ID NO: 56 fused to positions 10-68 of native RANTES (SEQ ID NO: 1) (ligand)
chain: B1 chain with W7S, L8S, V10S
B4: RANTES derivative: signature sequence SEQ ID NO: 48 fused to positions 10-68 of native RANTES (SEQ ID NO: 1) (ligand)
chain: B1 chain with P4L, L5S, M6S, W7Q, L8S
B5: RANTES derivative: signature sequence SEQ ID NO: 38 fused to positions 10-68 of native RANTES (SEQ ID NO: 1) (ligand)
chain: B1 chain with W7Q
B6: RANTES derivative: signature sequence SEQ ID NO: 59 fused to positions 10-68 of native RANTES (SEQ ID NO: 1) (ligand)
chain: B1 chain with L5G, M6Q, L8Y, V10S
B7: RANTES derivative: signature sequence SEQ ID NO: 44 fused to positions 10-68 of native RANTES (SEQ ID NO: 1) (ligand)
chain: B1 chain with W7S, Q9A
B8: RANTES derivative: signature sequence SEQ ID NO: 40 fused to positions 10-68 of native RANTES (SEQ ID NO: 1) (ligand)
chain: B1 chain with L5M, M6S, L8S, V10S
B9: RANTES derivative: signature sequence SEQ ID NO: 45 fused to positions 10-68 of native RANTES (SEQ ID NO: 1) (ligand)
chain: B1 chain with W7S, Q9T
B10: RANTES derivative: signature sequence SEQ ID NO: 31 fused to positions 10-68 of native RANTES (SEQ ID NO: 1) (ligand)
chain: B1 chain with M6S, V10S
B11: RANTES derivative: signature sequence SEQ ID NO: 37 fused to positions 10-68 of native RANTES (SEQ ID NO: 1) (ligand)
chain: B1 chain with W7G, L8T, V10S
B12: RANTES derivative: signature sequence SEQ ID NO: 5 fused to positions 10-68 of native RANTES (SEQ ID NO: 1) (ligand)
chain: B1 chain with L8T, V10S
B13: RANTES derivative: signature sequence SEQ ID NO: 54 fused to positions 10-68 of native RANTES (SEQ ID NO: 1) (ligand)
chain: B1 chain with L5G, M6Q, L8G
B14: RANTES derivative: signature sequence SEQ ID NO: 49 fused to positions 10-68 of native RANTES (SEQ ID NO: 1) (ligand)
chain: B1 chain with P4L, L5G, M6Q, W7Q, L8G
B15: RANTES derivative: signature sequence SEQ ID NO: 43 fused to positions 10-68 of native RANTES (SEQ ID NO: 1) (ligand)
chain: B1 chain with L5M, M6Q, W7G, L8G, Q9L, V10S
B16: RANTES derivative: signature sequence SEQ ID NO: 6 fused to positions 10-68 of native RANTES (SEQ ID NO: 1) (ligand)
chain: B1 chain with V10T
B17: RANTES derivative: signature sequence SEQ ID NO: 53 fused to positions 10-68 of native RANTES (SEQ ID NO: 1) (ligand)
chain: B1 chain with L8S
B18: RANTES derivative: signature sequence SEQ ID NO: 39 fused to positions 10-68 of native RANTES (SEQ ID NO: 1) (ligand)
chain: B1 chain with M6S, L8S
B19: RANTES derivative: signature sequence SEQ ID NO: 58 fused to positions 10-68 of native RANTES (SEQ ID NO: 1) (ligand)
chain: B1 chain with W7T
B20: RANTES derivative: signature sequence SEQ ID NO: 41 fused to positions 10-68 of native RANTES (SEQ ID NO: 1) (ligand)
chain: B1 chain with W7N
B21: RANTES derivative: signature sequence SEQ ID NO: 51 fused to positions 10-68 of native RANTES (SEQ ID NO: 1) (ligand)
chain: B1 chain with M6Q, L8T
B22: RANTES derivative: signature sequence SEQ ID NO: 46 fused to positions 10-68 of native RANTES (SEQ ID NO: 1) (ligand)
chain: B1 chain with P4L, L5S, M6G, L8A
B23: RANTES derivative: signature sequence SEQ ID NO: 34 fused to positions 10-68 of native RANTES (SEQ ID NO: 1) (ligand)
chain: B1 chain with M6S, L8Q, V10S
B24: RANTES derivative: signature sequence SEQ ID NO: 35 fused to positions 10-68 of native RANTES (SEQ ID NO: 1) (ligand)
chain: B1 chain with L5G, L8S, V10S
B25: RANTES derivative: signature sequence SEQ ID NO: 55 fused to positions 10-68 of native RANTES (SEQ ID NO: 1) (ligand)
chain: B1 chain with L5G, M6S, L8S
B26: RANTES derivative: signature sequence SEQ ID NO: 30 fused to positions 10-68 of native RANTES (SEQ ID NO: 1) (ligand)
chain: B1 chain with M6S
B27: RANTES derivative: signature sequence SEQ ID NO: 57 fused to positions 10-68 of native RANTES (SEQ ID NO: 1) (ligand)
chain: B1 chain with W7G, Q9S
B28: RANTES derivative: signature sequence SEQ ID NO: 50 fused to positions 10-68 of native RANTES (SEQ ID NO: 1) (ligand)
chain: B1 chain with M6Q, L8F
B29: RANTES derivative: signature sequence SEQ ID NO: 42 fused to positions 10-68 of native RANTES (SEQ ID NO: 1) (ligand)
chain: B1 chain with L5M, M6S, W7A, L8Y
B30: RANTES derivative: signature sequence SEQ ID NO: 36 fused to positions 10-68 of native RANTES (SEQ ID NO: 1) (ligand)
chain: B1 chain with M6Q, L8R, V10S
B31: RANTES derivative: signature sequence SEQ ID NO: 33 fused to positions 10-68 of native RANTES (SEQ ID NO: 1) (ligand)
chain: B1 chain with L5M, W7A, L8G, Q9L, V10S
B32: RANTES derivative: signature sequence SEQ ID NO: 52 fused to positions 10-68 of native RANTES (SEQ ID NO: 1) (ligand)
chain: B1 chain with W7A, Q9S
B33: RANTES derivative: signature sequence SEQ ID NO: 32 fused to positions 10-68 of native RANTES (SEQ ID NO: 1) (ligand)
chain: B1 chain with L5G, M6Q, L8S

Residue numbers refer to the chain shown, from its start.

This assay addresses CCR5 (UniProt P51681). Briefly: cell-based or functional assay.
B1 came in with a CCR5 sequestration (%) (% of control surface CCR5) of 3; a CCR5 signalling (%) (% of Emax of PSC-RANTES) of 4.6; an anti-HIV potency (IC50, nM) by cell fusion assay of 0.02 nM; an anti-HIV potency (IC50, nM) by viral replication assay of 0.38 nM.
Molecule B2 came in with a CCR5 sequestration (%) (% of control surface CCR5) of 78; a CCR5 signalling (%) (% of Emax of PSC-RANTES) of 96.9; an anti-HIV potency (IC50, nM) by cell fusion assay of 0.44 nM.
For B3, the CCR5 sequestration (%) (% of control surface CCR5) was determined as 15; the CCR5 signalling (%) (% of Emax of PSC-RANTES) stood at 7.5; the anti-HIV potency (IC50, nM) by cell fusion assay was 0.15 nM.
Regarding B4, the CCR5 sequestration (%) (% of control surface CCR5) is 78; the CCR5 signalling (%) (% of Emax of PSC-RANTES) came to 100; the anti-HIV potency (IC50, nM) by cell fusion assay was 0.64 nM.
The corresponding values for B5 are 3, 0.3 and 0.1 nM.
The corresponding values for B6 are 15, 6 and 0.23 nM.
The corresponding values for B7 are 60, 68.5 and 0.02 nM.
Regarding B8, the CCR5 sequestration (%) (% of control surface CCR5) amounted to 6; the CCR5 signalling (%) (% of Emax of PSC-RANTES) was 0; the anti-HIV potency (IC50, nM) by cell fusion assay was found to be 0.11 nM.
The corresponding values for B9 are 62, 77.4 and 0.02 nM.
Molecule B10 gave a CCR5 sequestration (%) (% of control surface CCR5) of 6; a CCR5 signalling (%) (% of Emax of PSC-RANTES) of 3.6; an anti-HIV potency (IC50, nM) by cell fusion assay of 0.02 nM.
The corresponding values for B11 are 5, 0.7 and 0.09 nM.
Consider B12, for which the CCR5 sequestration (%) (% of control surface CCR5) was determined as 0; the CCR5 signalling (%) (% of Emax of PSC-RANTES) was 5.3; the anti-HIV potency (IC50, nM) by cell fusion assay turned out to be 0.02 nM; the anti-HIV potency (IC50, nM) by viral replication assay is 0.576 nM.
In turn, B13 came in with a CCR5 sequestration (%) (% of control surface CCR5) of 12; a CCR5 signalling (%) (% of Emax of PSC-RANTES) of 2.1; an anti-HIV potency (IC50, nM) by cell fusion assay of 0.06 nM.
The corresponding values for B14 are 77, 97.2 and 0.74 nM.
The corresponding values for B15 are 4, 0.3 and 0.29 nM.
Take B16: the CCR5 sequestration (%) (% of control surface CCR5) was 3; the CCR5 signalling (%) (% of Emax of PSC-RANTES) was 1.4; the anti-HIV potency (IC50, nM) by cell fusion assay came out at 0.02 nM; the anti-HIV potency (IC50, nM) by viral replication assay amounted to 289 nM.
In turn, B17 displayed a CCR5 sequestration (%) (% of control surface CCR5) of 16; a CCR5 signalling (%) (% of Emax of PSC-RANTES) of 5.1; an anti-HIV potency (IC50, nM) by cell fusion assay of 0.02 nM.
The corresponding values for B18 are 5, 1.7 and 0.1 nM.
In the case of B19, the CCR5 sequestration (%) (% of control surface CCR5) turned out to be 25; the CCR5 signalling (%) (% of Emax of PSC-RANTES) turned out to be 0.7; the anti-HIV potency (IC50, nM) by cell fusion assay turned out to be 0.23 nM.
The corresponding values for B20 are 9, 0 and 0.12 nM.
For the molecule B21, the CCR5 sequestration (%) (% of control surface CCR5) is 12; the CCR5 signalling (%) (% of Emax of PSC-RANTES) stood at 5; the anti-HIV potency (IC50, nM) by cell fusion assay came to 0.02 nM.
The corresponding values for B22 are 72, 97.6 and 0.4 nM.
The corresponding values for B23 are 8, 5.1 and 0.03 nM.
The corresponding values for B24 are 5, 4.9 and 0.05 nM.
B25 yielded a CCR5 sequestration (%) (% of control surface CCR5) of 33; a CCR5 signalling (%) (% of Emax of PSC-RANTES) of 7.3; an anti-HIV potency (IC50, nM) by cell fusion assay of 0.07 nM.
B26 had a CCR5 sequestration (%) (% of control surface CCR5) of 4; a CCR5 signalling (%) (% of Emax of PSC-RANTES) of 4.1; an anti-HIV potency (IC50, nM) by cell fusion assay of 0.01 nM.
Turning to B27, the CCR5 sequestration (%) (% of control surface CCR5) is 18; the CCR5 signalling (%) (% of Emax of PSC-RANTES) came to 4.9; the anti-HIV potency (IC50, nM) by cell fusion assay was 0.16 nM.
For the molecule B28, the CCR5 sequestration (%) (% of control surface CCR5) came out at 11; the CCR5 signalling (%) (% of Emax of PSC-RANTES) turned out to be 7.6; the anti-HIV potency (IC50, nM) by cell fusion assay was found to be 0.02 nM.
The corresponding values for B29 are 0, 0.2 and 0.16 nM.
The corresponding values for B30 are 7, 5.1 and 0.05 nM.
The corresponding values for B31 are 0, 0.2 and 0.03 nM.
As to B32, the CCR5 sequestration (%) (% of control surface CCR5) is 11; the CCR5 signalling (%) (% of Emax of PSC-RANTES) was 8.3; the anti-HIV potency (IC50, nM) by cell fusion assay turned out to be 0.02 nM.
The corresponding values for B33 are 5, 6 and 0.03 nM.

Source of the values: US20090317363A1.
